{
  "source": "patent US20250052751A1",
  "about": "(published 2025)",
  "binders": {"B1": {"name": "AQP4 p133-149 (peptide)", "peptide": "LYLVTPPSVVGGLGVT"}, "B2": {"name": "AQP4 201-220 (peptide)", "chain": "HLFAINYTGASMNPARSFGP"}, "B3": {"name": "AQP4 131-150 (peptide)", "chain": "GILYLVTPPSVVGGLGVTMV"}, "B4": {"name": "AQP4 p202-218 (peptide)", "peptide": "LFAINYTGASMNPARSF"}, "B5": {"name": "AQP4 p24-35 (peptide)", "peptide": "VAFKGVWTQAFW"}},
  "data": [
    {"target": "T1, MHC class II I-A^b molecules purified by affinity chromatography (;mouse, UniProt P14434 24-218; P14483 28-226)", "T1 MHC II alpha": "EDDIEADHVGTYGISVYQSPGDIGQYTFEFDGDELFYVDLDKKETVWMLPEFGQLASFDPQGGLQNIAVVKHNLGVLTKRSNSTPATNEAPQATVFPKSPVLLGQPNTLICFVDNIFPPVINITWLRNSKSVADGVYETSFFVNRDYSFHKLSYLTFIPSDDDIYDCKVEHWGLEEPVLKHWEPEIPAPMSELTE", "T1 MHC II beta": "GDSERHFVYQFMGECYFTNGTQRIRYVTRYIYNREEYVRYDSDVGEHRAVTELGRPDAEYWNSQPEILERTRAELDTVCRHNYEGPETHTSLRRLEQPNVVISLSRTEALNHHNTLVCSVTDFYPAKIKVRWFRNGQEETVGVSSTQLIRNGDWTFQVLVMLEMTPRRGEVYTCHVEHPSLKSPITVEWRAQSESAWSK", "experiment": "competitive peptide binding assay on purified I-Ab", "units": {"IC50": "nM"}, "values": [
      {"binder": "B1", "IC50": 184},
      {"binder": "B2", "IC50": 28},
      {"binder": "B3", "IC50": 112},
      {"binder": "B4", "IC50": 16},
      {"binder": "B5", "IC50": 4880}
    ]}
  ]
}
